Data: paper doi:10.1101/2025.08.17.670156 (bioRxiv, 2025)

B1: double plant homeodomain fingers 3a (DPF3 isoform a), wild type (natural protein, human, UniProt Q92784-2 1-357, looked up)
chain: MATVIHNPLKALGDQFYKEAIEHCRSYNSRLCAERSVRLPFLDSQTGVAQNNCYIWMEKRHRGPGLAPGQLYTYPARCWRKKRRLHPPEDPKLRLLEIKPEVELPLKKDGFTSESTTLEALLRGEGVEKKVDAREEESIQEIQRVLENDENVEEGNEEEDLEEDIPKRKNRTRGRARGSAGGRRRHDAASQEDHDKPYVCDICGKRYKNRPGLSYHYAHTHLASEEGDEAQDQETRSPPNHRNENHRPQKGPDGTVIPNNYCDFCLGGSNMNKKSGRPEELVSCADCGRSAHLGGEGRKEKEAAAAARTTEDLFGSTSESDTSTFHGFDEDDLEEPRSCRGRRSGRGSPTADKKGSC
B2: DPF3a phosphomimetic S348E (natural protein, human, UniProt Q92784-2 1-357, looked up)
chain: MATVIHNPLKALGDQFYKEAIEHCRSYNSRLCAERSVRLPFLDSQTGVAQNNCYIWMEKRHRGPGLAPGQLYTYPARCWRKKRRLHPPEDPKLRLLEIKPEVELPLKKDGFTSESTTLEALLRGEGVEKKVDAREEESIQEIQRVLENDENVEEGNEEEDLEEDIPKRKNRTRGRARGSAGGRRRHDAASQEDHDKPYVCDICGKRYKNRPGLSYHYAHTHLASEEGDEAQDQETRSPPNHRNENHRPQKGPDGTVIPNNYCDFCLGGSNMNKKSGRPEELVSCADCGRSAHLGGEGRKEKEAAAAARTTEDLFGSTSESDTSTFHGFDEDDLEEPRSCRGRRSGRGEPTADKKGSC
B3: DPF3a phosphomimetic S138E (natural protein, human, UniProt Q92784-2 1-357, looked up)
chain: MATVIHNPLKALGDQFYKEAIEHCRSYNSRLCAERSVRLPFLDSQTGVAQNNCYIWMEKRHRGPGLAPGQLYTYPARCWRKKRRLHPPEDPKLRLLEIKPEVELPLKKDGFTSESTTLEALLRGEGVEKKVDAREEEEIQEIQRVLENDENVEEGNEEEDLEEDIPKRKNRTRGRARGSAGGRRRHDAASQEDHDKPYVCDICGKRYKNRPGLSYHYAHTHLASEEGDEAQDQETRSPPNHRNENHRPQKGPDGTVIPNNYCDFCLGGSNMNKKSGRPEELVSCADCGRSAHLGGEGRKEKEAAAAARTTEDLFGSTSESDTSTFHGFDEDDLEEPRSCRGRRSGRGSPTADKKGSC

Molecular target: the molecule itself
Test: deep-blue autofluorescence of amyloid fibrils

Binding result, binds:
B1
B2
B3
